From PMC12152872 (2025)
“And” between values parts separate entries of the source, which are not always exact repeats. Equal entries are not always repeated.

Molecular target: T1, BTN2A1 B30.2 (Homo sapiens, UniProt Q7KYR7)
T1 chain: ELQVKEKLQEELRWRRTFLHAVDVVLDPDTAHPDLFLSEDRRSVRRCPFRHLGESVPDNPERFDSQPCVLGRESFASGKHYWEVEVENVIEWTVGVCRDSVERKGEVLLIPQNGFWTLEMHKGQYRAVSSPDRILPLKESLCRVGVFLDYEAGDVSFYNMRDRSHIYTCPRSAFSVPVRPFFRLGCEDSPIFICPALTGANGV
Experiment: ITC

- Kd: 8.19 µM and 18.8 µM
B1: BTN3A1 B30.2 (protein)
chain: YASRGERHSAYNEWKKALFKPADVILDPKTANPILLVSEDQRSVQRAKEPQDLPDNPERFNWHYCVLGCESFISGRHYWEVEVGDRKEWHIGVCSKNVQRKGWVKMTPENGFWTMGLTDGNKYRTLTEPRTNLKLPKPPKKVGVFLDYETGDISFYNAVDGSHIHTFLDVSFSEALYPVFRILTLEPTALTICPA
modifications: DMASPP
